Key:
Kap114p wild type = target: T1, Kap114p wild type (S. cerevisiae, UniProt P53067 1-1004); assay: ITC; MicroCal iTC200, 25 °C, 20 mM HEPES pH 7.4, 150 mM NaCl; low concentration: 25 µM wild type or mutant Kap114p in the sample cell, 250 µM wild type or mutant yTBPC in the syringe; triplicate; conditions: both partners purified
T1 construct: Kap114p (karyopherin-β), S. cerevisiae, full length, amplified from total genomic DNA; GST tag followed by a PreScission site (modified pGEX6p1); PreScission protease added during dialysis; also called Kap114p WT; GST-Kap114p (plasmid pGEX-6P-1-Kap114); source: E. coli Rosetta, purified (GST resin, MonoQ, Superdex 200)
T1 sequence (looked up): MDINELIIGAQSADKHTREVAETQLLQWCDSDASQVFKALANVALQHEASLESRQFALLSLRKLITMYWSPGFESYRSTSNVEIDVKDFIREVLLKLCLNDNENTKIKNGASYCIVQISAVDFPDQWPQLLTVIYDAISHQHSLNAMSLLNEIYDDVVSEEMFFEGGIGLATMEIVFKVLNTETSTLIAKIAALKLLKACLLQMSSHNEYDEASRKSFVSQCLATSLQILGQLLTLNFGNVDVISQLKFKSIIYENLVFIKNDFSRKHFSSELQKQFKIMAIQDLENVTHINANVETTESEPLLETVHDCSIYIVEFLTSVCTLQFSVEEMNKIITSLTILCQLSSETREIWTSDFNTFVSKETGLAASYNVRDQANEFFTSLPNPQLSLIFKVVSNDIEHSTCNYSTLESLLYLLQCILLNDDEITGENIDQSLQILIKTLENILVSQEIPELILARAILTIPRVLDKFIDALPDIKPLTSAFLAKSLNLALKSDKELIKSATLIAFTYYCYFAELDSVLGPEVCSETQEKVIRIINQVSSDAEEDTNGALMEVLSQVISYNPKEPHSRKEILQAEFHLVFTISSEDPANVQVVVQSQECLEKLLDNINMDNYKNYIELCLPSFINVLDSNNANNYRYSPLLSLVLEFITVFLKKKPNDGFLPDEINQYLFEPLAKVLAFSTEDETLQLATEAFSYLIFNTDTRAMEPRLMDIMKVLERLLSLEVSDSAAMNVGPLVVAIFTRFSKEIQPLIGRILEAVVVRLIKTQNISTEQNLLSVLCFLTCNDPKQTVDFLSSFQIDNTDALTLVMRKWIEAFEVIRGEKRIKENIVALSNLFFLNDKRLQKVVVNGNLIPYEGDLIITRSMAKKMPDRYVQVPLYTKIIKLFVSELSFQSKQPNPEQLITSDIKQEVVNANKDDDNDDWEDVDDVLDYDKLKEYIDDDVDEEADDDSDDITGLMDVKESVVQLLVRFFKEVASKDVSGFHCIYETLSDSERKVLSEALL

Kap114pΔ(932-941) = target: T2, Kap114pΔ(932-941) (S. cerevisiae, UniProt P53067 1-1004, Δ(932-941)); assay: as above; conditions: both partners purified
T2 construct: also called GST-Kap114p (Δ932-941); source: E. coli Rosetta, purified (GST resin, MonoQ, Superdex 200)
T2 sequence (looked up): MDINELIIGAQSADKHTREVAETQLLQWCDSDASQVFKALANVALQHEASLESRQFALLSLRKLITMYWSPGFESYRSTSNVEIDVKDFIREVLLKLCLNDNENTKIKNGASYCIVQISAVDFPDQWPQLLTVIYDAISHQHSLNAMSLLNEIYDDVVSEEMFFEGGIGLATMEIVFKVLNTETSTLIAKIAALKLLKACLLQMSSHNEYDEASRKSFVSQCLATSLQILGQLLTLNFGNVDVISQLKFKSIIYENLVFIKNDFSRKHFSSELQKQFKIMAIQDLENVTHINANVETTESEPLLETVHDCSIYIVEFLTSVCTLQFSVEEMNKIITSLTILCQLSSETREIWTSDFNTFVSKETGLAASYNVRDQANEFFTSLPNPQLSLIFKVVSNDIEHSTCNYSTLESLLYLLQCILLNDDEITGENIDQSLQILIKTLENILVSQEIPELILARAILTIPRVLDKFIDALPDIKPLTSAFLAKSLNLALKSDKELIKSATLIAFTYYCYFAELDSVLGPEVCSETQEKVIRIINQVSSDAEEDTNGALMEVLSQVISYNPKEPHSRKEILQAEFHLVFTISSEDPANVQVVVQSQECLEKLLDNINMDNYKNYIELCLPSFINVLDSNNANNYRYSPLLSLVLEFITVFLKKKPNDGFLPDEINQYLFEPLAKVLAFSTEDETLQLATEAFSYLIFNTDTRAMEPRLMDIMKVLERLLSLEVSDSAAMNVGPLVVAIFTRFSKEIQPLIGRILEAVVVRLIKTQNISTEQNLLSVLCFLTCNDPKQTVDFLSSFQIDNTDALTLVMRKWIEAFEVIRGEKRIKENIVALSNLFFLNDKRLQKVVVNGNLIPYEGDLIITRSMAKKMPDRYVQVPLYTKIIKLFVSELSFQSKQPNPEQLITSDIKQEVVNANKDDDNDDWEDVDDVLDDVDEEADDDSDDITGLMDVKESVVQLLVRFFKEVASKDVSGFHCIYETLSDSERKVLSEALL

B1: yTBP^C wild type (core domain of yeast TATA-box binding protein, a.a. 61-240) (domain or fragment, S. cerevisiae, UniProt P13393 61-240, looked up)
chain: SGIVPTLQNIVATVTLGCRLDLKTVALHARNAEYNPKRFAAVIMRIREPKTTALIFASGKMVVTGAKSEDDSKLASRKYARIIQKIGFAAKFTDFKIQNIVGSCDVKFPIRLEGLAFSHGTFSSYEPELFPGLIYRMVKPKIVLLIFVSGKIVLTGAKQREEIYQAFEAIYPVLSEFRKM
notes: modified pET28a, 6xHis tag followed by a PreScission site; also called yTBPC WT; His-yTBP (61-240); source: E. coli Rosetta, purified (Ni-NTA, HiTrap SP, Superdex 75); not shown: His6, N-terminal, cleaved
Kap114p wild type
  Kd: 1.4 nM
Kap114pΔ(932-941)
  Kd: 79.9 nM

From publication PMC10491584, “Structural convergence endows nuclear transport receptor Kap114p with a transcriptional repressor function toward TATA-binding protein” (Nature Communications, 2023)
